We go through 11 molecules from patent US20230220080A1 (EPIMAB BIOTHERAPEUTICS, published 2023).

For assay [1], the target named is Factor IXa (UniProt P00740 47-461, limits assumed). The assay can be described thus: method not stated.
Assay [2] deals with T1, hFactor IX (Enzyme Research Laboratory) (human, UniProt P00740 47-461).
T1 construct: also called FIX
The assay can be described thus: SPR Biacore X100, Ig captured by anti-Fc, 500 nM antigen.
Protocol: (§1) Affinity measurement by surface plasmon resonance: The kinetics of FIT-Ig binding to hFactor IX and hFactor X (Enzyme Research Laboratory) was determined by surface plasmon resonance with a Biacore X100 instrument (Biacore AB, Uppsala, Sweden) using HBS-EP (10 mM HEPES, pH 7.4, 150 mM NaCl, 3 mM EDTA, and 0.005% surfactant P20) at 25° C. Briefly, goat anti-human IgG Fc fragment specific polyclonal antibody (Pierce Biotechnology Inc, Rockford, Ill.) was directly immobilized across a CM5 research grade biosensor chip using a standard amine coupling kit according to manufacturer's instructions. Purified FIT-Ig samples were diluted in HEPES-buffered saline for capture across goat anti-human IgG Fc specific reaction surfaces and injected over reaction matrices at a flow rate of 5 μl/min. The association and dissociation rate constants, kon (M-1s-1) and koff (s-1) were determined under a continuous flow rate of 30 μL/min. Rate constants were derived by making kinetic binding measurements at 500 nM antigen concentrations. The equilibrium dissociation constant (M) of the reaction between FIT-Ig and the target proteins was then calculated from the kinetic rate constants by the following formula: KD=koff/kon. Aliquots of antigen samples were also simultaneously injected over a blank reference and reaction CM surface to record and subtract any nonspecific binding background to eliminate the majority of the refractive index change and injection noise. Surfaces were regenerated with two subsequent 25 ml injections of 10 mM Glycine (pH 1.5) at a flow rate of 10 μL/min. The anti-Fc antibody immobilized surfaces were completely regenerated and retained their full capture capacity over twelve cycles.

Assay [3] has as its target T2, hFactor X (Enzyme Research Laboratory) (human, UniProt P00742 41-488, limits assumed).
T2 construct: also called FX
The description is as above.
Protocol: as §1

Assay [4] deals with T3, human PD-L1, recombinant protein (human, UniProt Q9NZQ7 19-239, limits assumed).
T3 construct: also called rhPD-L1; PD-L1-his
T3 sequence (Q9NZQ7 19-239 limits assumed): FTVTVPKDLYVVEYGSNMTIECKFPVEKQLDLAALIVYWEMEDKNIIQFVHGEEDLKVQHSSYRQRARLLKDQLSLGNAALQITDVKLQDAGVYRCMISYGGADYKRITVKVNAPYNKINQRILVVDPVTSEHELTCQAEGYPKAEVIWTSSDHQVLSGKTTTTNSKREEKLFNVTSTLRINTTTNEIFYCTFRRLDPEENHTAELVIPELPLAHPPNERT
The assay can be described thus: method not stated.

The target in assay [5] is T3, human PD-L1, recombinant protein. The assay can be described thus: method not stated. This is another data set of the same source.
The target in assay [6] is T4, recombinant human IL-20 (human, UniProt Q9NYY1 25-176).
T4 sequence (looked up): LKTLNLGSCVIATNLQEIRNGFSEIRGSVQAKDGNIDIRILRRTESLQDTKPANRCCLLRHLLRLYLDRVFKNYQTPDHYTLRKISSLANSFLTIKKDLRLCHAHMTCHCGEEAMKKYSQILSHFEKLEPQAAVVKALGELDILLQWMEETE
The assay can be described thus: cell-based or functional assay.

The target of assay [7] is T5, recombinant human IL-17 (human, UniProt Q16552 24-155). The assay can be described thus: cell-based or functional assay.
T5 sequence (Q16552 24-155 limits assumed): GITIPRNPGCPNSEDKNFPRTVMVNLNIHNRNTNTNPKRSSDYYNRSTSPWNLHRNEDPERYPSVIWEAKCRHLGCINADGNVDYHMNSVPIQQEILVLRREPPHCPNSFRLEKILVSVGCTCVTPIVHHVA
Assay [8] concerns the target T4, recombinant human IL-20. The assay can be described thus: SPR Biacore, Ig captured by anti-Fc, antigen injected. In general terms: Surface plasmon resonance follows binding to a sensor surface in real time, without labels.
Protocol: (§2) The kinetics of FIT-Ig binding to rhIL-17 and rhIL-20 was determined by surface plasmon resonance (Table 5) with a Biacore X100 instrument (Biacore AB, Uppsala, Sweden) using HBS-EP (10 mM HEPES, pH 7.4, 150 mM NaCl, 3 mM EDTA, and 0.005% surfactant P20) at 25° C. Briefly, goat anti-human IgG Fcγ fragment specific polyclonal antibody (Pierce Biotechnology Inc, Rockford, Ill.) was directly immobilized across a CM5 research grade biosensor chip using a standard amine coupling kit according to manufacturer's instructions. Purified FIT-Ig samples were diluted in HEPES-buffered saline for capture across goat anti-human IgG Fc specific reaction surfaces and injected over reaction matrices at a flow rate of 5 μl/min. The association and dissociation rate constants, kon (M-1s-1) and koff (s-1) were determined under a continuous flow rate of 30 μL/min. […] The equilibrium dissociation constant (M) of the reaction between FIT-Ig and the target proteins was then calculated from the kinetic rate constants by the following formula: KD=koff/kon. Aliquots of antigen samples were also simultaneously injected over a blank reference and reaction CM surface to record and subtract any nonspecific binding background to eliminate the majority of the refractive index change and injection noise. Surfaces were regenerated with two subsequent 25 ml injections of 10 mM Glycine (pH 1.5) at a flow rate of 10 μL/min.
Assay [9] concerns the target T5, recombinant human IL-17. Described as above.
Protocol: as §2

Where two headings read alike, the source gives them in different places.

B1: Factor IXa mAb (antibody, V domains shown)
VH: QVQLVESGGGLVQPGGSLRLSCAASGFTFSYYDIQWVRQAPGKGLEWVSSISPSGQSTYYRREVKGRFTISRDNSKNTLYLQMNSLRAEDTAVYYCARRTGREYGGGWYFDYWGQGTLVTVSS
VL: DIQMTQSPSSLSASVGDRVTITCKASRNIERQLAWYQQKPGQAPELLIYQASRKESGVPDRFSGSRYGTDFTLTISSLQPEDIATYYCQQYSDPPLTFGGGTKVEIK
notes: parental mAb; also called Factor IX mAb; mAb FIX
In general, Kd refers to a measure of binding affinity in units of concentration. The term kon denotes the second-order rate constant of association. One may read the koff as the rate constant with which the complex falls apart. Consider B1, for which, in [1], binding was characterised by a dissociation constant (Kd) of 13 nM and the kon worked out at 27400 M⁻¹ s⁻¹. In assay [2], this molecule gave a Kd of 13 nM, a koff of 0.000355 s⁻¹ and a kon of 27400 M⁻¹ s⁻¹.

B2: Factor X mAb (antibody, V domains shown)
VH: QVQLVQSGSELKKPGASVKVSCKASGYTFTDNNMDWVRQAPGQGLEWMGDINTRSGGSIYNEEFQDRVIMTVDKSTDTAYMELSSLRSEDTATYHCARRKSYGYYLDEWGEGTLVTVSS
VL: B1 VL
notes: parental mAb; also called mAb FX; Factor X Ab
For B2, in assay [3], the affinity, expressed as Kd, was 45.1 nM; the koff worked out at 0.00142 s⁻¹; the kon amounted to 31500 M⁻¹ s⁻¹.

B3: PD-L1 antibody 10A5 (antibody, V domains shown)
VH: QVQLVQSGAEVKKPGASVKVSCKASGYTFTSYDVHWVRQAPGQRLEWMGWLHADTGITKFSQKFQGRVTITRDTSASTAYMELSSLRSEDTAVYYCARERIQLWFDYWGQGTLVTVSS
VL: DIQMTQSPSSLSASVGDRVTITCRASQGISSWLAWYQQKPEKAPKSLIYAASSLQSGVPSRFSGSGSGTDFTLTISSLQPEDFATYYCQQYNSYPYTFGQGTKLEIK
notes: parental mAb
Turning to B3, the Kd in assay [4] stood at 0.735 nM.

B4: FIT012b-Ig EGFR (panitumumab)/PD-L1 (1B12) (bispecific antibody, human IgG1, kappa)
chain 1: not shown
chain 2: QVQLQESGPGLVKPSETLSLTCTVSGGSVSSGDYYWTWIRQSPGKGLEWIGHIYYSGNTNYNPSLKSRLTISIDTSKTQFSLKLSSVTAADTAIYYCVRDRVTGAFDIWGQGTMVTVSSASTKGPSVFPLAPSSKSTSGGTAALGCLVKDYFPEPVTVSWNSGALTSGVHTFPAVLQSSGLYSLSSVVTVPSSSLGTQTYICNVNHKPSNTKVDKKVEPKSC
chain 3: not shown
notes: leader left out
Turning to B4, the Kd in assay [5] stood at 3.89 nM.

B5: Anti-IL-17/IL-20 FIT1-Ig (bispecific antibody, human IgG1, kappa)
chain 1: not shown
chain 2: QVQLVQSGAEVKKPGSSVKVSCKASGYSFTDYHIHWVRQAPGQGLEWMGVINPMYGTTDYNQRFKGRVTITADESTSTAYMELSSLRSEDTAVYYCARYDYFTGTGVYWGQGTLVTVSSASTKGPSVFPLAPSSKSTSGGTAALGCLVKDYFPEPVTVSWNSGALTSGVHTFPAVLQSSGLYSLSSVVTVPSSSLGTQTYICNVNHKPSNTKVDKKVEPKSC
chain 3: not shown
notes: three-polypeptide FIT-Ig, no linker, human IgG1 Fc; described as tetravalent, so two copies of each chain
In the case of B5, in assay [6], the “Neutralization Potency IC50 (IL-20R+ BAF3 cell proliferation)” value is 0.054 nM. The “Neutralization Potency IC50 (GROα production by Hs27 cells)” value in assay [7] stood at 0.102 nM. Besides, in [8], the Kd is 0.0273 nM, the koff stood at 3.82e-05 s⁻¹ and the kon was 1.4e+06 M⁻¹ s⁻¹. Moreover, in assay [9], the Kd worked out at 0.00364 nM, the koff was 3.88e-05 s⁻¹ and the on-rate constant (kon) was 1.07e+07 M⁻¹ s⁻¹.

B6: Anti-IL-17/IL-20 FIT2-Ig (bispecific antibody, human IgG1, kappa)
chain 1: not shown
chain 2: B5 chain 2
chain 3: not shown
notes: three-polypeptide FIT-Ig with GSG linker; tetravalent
Turning to B6, in assay [6], the “Neutralization Potency IC50 (IL-20R+ BAF3 cell proliferation)” value stood at 0.05 nM. The “Neutralization Potency IC50 (GROα production by Hs27 cells)” value in assay [7] was 0.137 nM. Further, in [8], the dissociation constant (Kd) stood at 0.0195 nM, the koff is 3.5e-05 s⁻¹ and the kon is 1.8e+06 M⁻¹ s⁻¹. Further, in assay [9], the Kd came out at 0.00165 nM, the koff came out at 1.53e-05 s⁻¹ and the kon was determined as 9.24e+06 M⁻¹ s⁻¹.

B7: Anti-IL-17/IL-20 FIT3-Ig (bispecific antibody, human IgG1, kappa)
chain 1: not shown
chain 2: B5 chain 2
chain 3: not shown
notes: three-polypeptide FIT-Ig with GGGGSGS linker; tetravalent
On to B7, for which the “Neutralization Potency IC50 (IL-20R+ BAF3 cell proliferation)” value in [6] is 0.072 nM. In assay [7], the “Neutralization Potency IC50 (GROα production by Hs27 cells)” value stood at 0.146 nM. In addition, in assay [8], the Kd stood at 0.0273 nM, the koff came to 3.82e-05 s⁻¹ and the kon was 1.4e+06 M⁻¹ s⁻¹. In assay [9], the Kd is 0.0011 nM, the koff was determined as 9.58e-06 s⁻¹ and the kon was 8.71e+06 M⁻¹ s⁻¹.

B8: FIT014a Factor IX (Factor IX Ab)/Factor X (Factor X Ab) (bispecific antibody, human IgG4 S228P, kappa)
chain 1: DIQMTQSPSSLSASVGDRVTITCKASRNIERQLAWYQQKPGQAPELLIYQASRKESGVPDRFSGSRYGTDFTLTISSLQPEDIATYYCQQYSDPPLTFGGGTKVEIKRTVAAPSVFIFPPSDEQLKSGTASVVCLLNNFYPREAKVQWKVDNALQSGNSQESVTEQDSKDSTYSLSSTLTLSKADYEKHKVYACEVTHQGLSSPVTKSFNRGECQVQLVQSGSELKKPGASVKVSCKASGYTFTDNNMDWVRQAPGQGLEWMGDINTRSGGSIYNEEFQDRVIMTVDKSTDTAYMELSSLRSEDTATYHCARRKSYGYYLDEWGEGTLVTVSSASTKGPSVFPLAPCSRSTSESTAALGCLVKDYFPEPVTVSWNSGALTSGVHTFPAVLQSSGLYSLSSVVTVPSSSLGTQTYTCNVDHKPSNTKVDKRVESKYGPPCPPCPAPEFLGGPSVFLFPPKPKDTLMISRTPEVTCVVVDVSQEDPEVQFNWYVDGVEVHNAKTKPREEQYNSTYRVVSVLTVLHQDWLNGKEYKCKVSNKGLPSSIEKTISKAKGQPREPQVYTLPPSQEEMTKNQVSLTCLVKGFYPSDIAVEWESNGQPENNYKTTPPVLDSDGSFFLYSKLTVDKSRWQEGNVFSCSVMHEALHNHYTQESLSLSP
chain 2: QVQLVESGGGLVQPGGSLRLSCAASGFTFSYYDIQWVRQAPGKGLEWVSSISPSGQSTYYRREVKGRFTISRDNSKNTLYLQMNSLRAEDTAVYYCARRTGREYGGGWYFDYWGQGTLVTVSSASTKGPSVFPLAPSSKSTSGGTAALGCLVKDYFPEPVTVSWNSGALTSGVHTFPAVLQSSGLYSLSSVVTVPSSSLGTQTYICNVNHKPSNTKVDKKVEPKSC
chain 3: DIQMTQSPSSLSASVGDRVTITCKASRNIERQLAWYQQKPGQAPELLIYQASRKESGVPDRFSGSRYGTDFTLTISSLQPEDIATYYCQQYSDPPLTFGGGTKVEIKRTVAAPSVFIFPPSDEQLKSGTASVVCLLNNFYPREAKVQWKVDNALQSGNSQESVTEQDSKDSTYSLSSTLTLSKADYEKHKVYACEVTHQGLSSPVTKSFNRGEC
notes: leader left out; also called FIT-Ig 014a
On to B8, for which, in assay [2], the Kd was determined as 9.91 nM, the koff worked out at 0.000332 s⁻¹ and the kon is 33500 M⁻¹ s⁻¹. Moreover, in [3], binding was characterised by a dissociation constant (Kd) of 10 nM, the koff amounted to 0.000776 s⁻¹ and the kon was determined as 77500 M⁻¹ s⁻¹.

B9: FIT14-Ig Factor IXa/Factor X (bispecific antibody, human IgG4 S228P, kappa)
chain 1: B8 chain 1
chain 2: B8 chain 2
chain 3: B8 chain 3
notes: leader left out; also called FIT-Ig 014; FIT-Ig 14
B9: the affinity in assay [1], expressed as Kd, was 9.9 nM.

B10: anti-IL-17 mAb (clone LY) (antibody, V domains shown)
VH: QVQLVQSGAEVKKPGSSVKVSCKASGYSFTDYHIHWVRQAPGQGLEWMGVINPMYGTTDYNQRFKGRVTITADESTSTAYMELSSLRSEDTAVYYCARYDYFTGTGVYWGQGTLVTVSS
VL: DIVMTQTPLSLSVTPGQPASISCRSSRSLVHSRGNTYLHWYLQKPGQSPQLLIYKVSNRFIGVPDRFSGSGSGTDFTLKISRVEAEDVGVYYCSQSTHLPFTFGQGTKLEIK
notes: parental mAb
For B10, in assay [7], the “Neutralization Potency IC50 (GROα production by Hs27 cells)” value was found to be 0.101 nM. Also, in assay [9], the Kd came to 0.0218 nM, the koff was determined as 1.8e-05 s⁻¹ and the kon came out at 824000 M⁻¹ s⁻¹.

B11: anti-hIL-20 mAb (clone 15D2) (antibody, V domains shown)
VH: QVQLVQSGAEVKRPGASVKVSCKASGYTFTNDIIHWVRQAPGQRLEWMGWINAGYGNTQYSQNFQDRVSITRDTSASTAYMELISLRSEDTAVYYCAREPLWFGESSPHDYYGMDVWGQGTTVTVSS
VL: AIQLTQSPSSLSASVGDRVTITCRASQGISSALAWYQQKPGKAPKLLIYDASSLESGVPSRFSGSGSGTDFTLTISSLQPEDFATYYCQQFNSYPLTFGGGTKVEIK
notes: parental mAb
For B11, in assay [6], the “Neutralization Potency IC50 (IL-20R+ BAF3 cell proliferation)” value amounted to 0.05 nM. In addition, in [8], the Kd was 0.05 nM, the koff stood at 8.3e-05 s⁻¹ and the kon came out at 1.7e+06 M⁻¹ s⁻¹.
